From the DeepSol protein solubility set

test: soluble on expression in E. coli; label from the status in PepcDB or PDB records

Sequence | soluble on expression in E. coli
VSDGEQAKSRRRRGRRRGRRAAATAENHMDAQPAGDATPTPATAKRSRSRSPRRGSTRMRTVHETSAGGLVIDGIDGPRDAQVAALIGRVDRRGRLLWSLPKGHIELGETAEQTAIREVAEETGIRGSVLAALGRIDYWFVTDGRRVHKTVHHYLMRFLGGELSDEDLEVAEVAWVPIRELPSRLAYADERRLAEVADELIDKLQSDGPAALPPLPPSSPRRRPQTHSRARHADDSAPGQHNGPGPGP | not soluble
VSVGTHPTFENSPSGTVLTSPPDGSAVDRATDAARRVVDALLRTDRGNANLERVAEELNSIAGHLEEHAPAVAERLIDMWNGEGVTRHDPVTGPENALAPPVVLEGLSDGSVRGTVTLTIPYQGPPGHVHGGVSALLLDHVLGVANAWGGKAGMTAQLSTRYHRPTPLFEPLTLTGKLMSVDGRKITTAGDIRTADGQVCVSVEGLFVDKTVPRPR | soluble
VTVRMDPQRFDELVSDALDLIPPELADAMDNVVVLVANRHPQHENLLGQYEGVALTERGSDYAGSLPDAITIYREALLDACDSEDEVVDQVAITVIHEVAHHFGIDDERLDQLGWRDEPAPGRGNPDLSAPDAMNGP | soluble
VVGHIVNDLQRRKVGDQEVVKFRVASNSRRRTSDGGWEPGNSLFITVNCWGRLVTGVGAALGKGAPVIVVGHVYTSEYEDRDGIRRSSLEMRATSVGPDLSRVIVRIEKPAYTGPSAGDLPAATGTGAAGAADAPASAADSVSDVVVDDAITGHNPLPISA | not soluble
WGYEAVGRFTSWEQIATYPIDNDRKGNKTVVPGDIMYKDVNGDGVINYMDERPIGYRSDSTPTLNFGINLSASWKGFDLAMDWTGSGMTSWQQQYETARPFQNDGNSPEEVFKDAWHLADIWDADSQLIPGKYPLIRLNNEETSAYDKSTFWLHNVKYIKLRNLEFGYTLPKRIVAKAGISNLRLYVSGTNLFSISNIPFMDPECIDSNGLDYPTMRVVNLGINLKF | not soluble
WILASTTEGAPSVAPLNVTVFLNESSDNVDIRWMKPPTKQQDGELVGYRISHVWQSAGISKELLEEVGQNGSRARISVQVHNATCTVRIAAVTRGGVGPFSDPVKIFIPAH | soluble
WKQKVGYPTNQTWGYIAEGLFVDDNEVANSPVQFGEYGAGDIKYRDVNKDGKITDLDQVPIGYPKEPEIVYGFGASYGYKNWDISVFFQGLARESFWIDYNNVSPYFNTVDTKVVGNRVGHNALAKFIADSHWSEDNRDAYAVWPRLSPTSIENNSKTSTWFMRDGSFLRLKQLEIGYTIPEKVTNKVGIKNLRFYVTGNNLLCFSKFKLWDPEMAGAGLGYPVQRVYNVGLNLTF | not soluble
WLFFRYMAIGGYVGAATVGAAAW | soluble
WLSGYAGPADGTQQPDAPEHAVAREALVDLCRRRHFLSGTPQQLSTAALLSGCHARFGPLGVELRKNLASQWWSSMVVFREQVFAVDSLHQEPGSSQPRDSAFRLVSPESIREILQDREPSKEQLVAFLENLLKTSGKLRATLLHGALEHYVNCLDLVNRKLPFGLAQIGVCFHPVSNSNQTPSSVTRVGEKTEASLVWFTPTRTSSQWLDFWLRHRLLWWRKFAMSPSNFSSADCQDELGRKGSKLYYSFPWGKEPIETLWNLGDQELLHTYPGNVSTIQGRDGRKNVVPCVLSVSGDVDLGTLAYLYDSFQLAENSFARKKSLQRKVLKLHPCLAPIKVALDVGKGPTVELRQVCQGLLNELLENGISVWPGYSETVHSSLEQLHSKYDEMSVLFSVLVTETTLENGLIQLRSRDTTMKEMMHISKLRDFLVKYLASASNVAAALDHHHHHH | soluble
WNHDEEARGSVRWRTLFDTALTSENVILYAQSVHSISDATHKKALHEELTCRIRDPENGIVKASRFISAIRQVGYEAQMDRAVLHKFLKDFKENFDSSKNYALNLNVTPFSSREYFKWFRDELLQLSREQRKCLNFEFVEAQFVRHLDFMRPVAKMLAGLGCHLMVGQAGRTIVSTHYLKEVDIRYLKLHRSLVAKIDQRHENQLFVRSMLGAAANSKTKIIAVGIENQQELNTLLELGVYGGQGRYFSAE | not soluble
WSGVMEWQEPRPEPNSRSKRWLPSHVYVNQGEILRTEQWPRKLYMQLIPQQLLTTLVPLFRNSRLVQFHFTKDLETLKSLCRIMDNGFAGCVHFSYKASCEIRVLMLLYSSEKKIFIGLIPHDQGNFVNGIRRVIANQQQVLQRNLEQEQQQRGMGG | not soluble
WSNNYAVDCPQHCDSSECKSSPRCERTVLDDCGCCRVCAAGRGETCYRTVSGMDGMKCGPGLRCQPSNGEDPFGEEFGICKDCPYGTFGMDCRETCNCQSGICDRGTGKCLKFPFFQYSVTKSSNRFVSLTEHDMASGDGNIVREEVVKENAAGSPVMRKWLNPR | soluble
YEQKIRLENRSVAGKWALSQKGFDGKKLMRAYDSPEAAAAALKMQKLTEQYRIDSTPTVIVGGKYRVIFNNGFDGGVHTIKELVAKVREERKRQTPAVQK | not soluble
YFEVNITMSSGLWSQEKVTSPYWEERIFYLLLQECSVTDKQTQKLLKVPKGSIGQYIQDRSVGHSRIPSAKGKKNQIGLKILEQPHAVLFVDEKDVVEINEKFTELLLAITNCEERFSLFKNRNRLSKGLQIDVGCPVKVQLRSGEEKFPGVVRFRGPLLAERTVSGIFFGVELLEEGRGQGFTDGVYQGKQLFQCDEDCGVFVALDKLELIEDDDTALESDYAGPGDTMQVELPPLEINSRVSLKVGETIESGTVIFCDVLPGKESLGYFVGVDMDNPIGNWDGRFDGVQLCSFACVESTILLHINDIIPESVTQERRPPKLAFMSRGVGDKGSSSHNKPKATGSTSDPGNRNRSELFYTLNGSSVDSQPQSKSKNTWYIDEVAEDPAKSLTEISTDFDRSSPPLQPPPVNSLTTENRFHSLPFSLTKMPNTNGSIGHSPLSLSAQSVMEELNTAPVQESPPLAMPPGNSHGLEVGSLAEVKENPPFYGVIRWIGQPPGLNEVLAGLELEDECAGCTDGTFRGTRYFTCALKKALFVKLKSCRPDSRFASLQPVSNQIERCNSLAFGGYLSEVVEENTPPKMEKEGLEIMIGKKKGIQGHYNSCYLDSTLFCLFAFSSVLDTVLLRPKEKNDVEYYSETQELLRTEIVNPLRIYGYVCATKIMKLRKILEKVEAASGFTSEEKDPEEFLNILFHHILRVEPLLKIRSAGQKVQDCYFYQIFMEKNEKVGVPTIQQLLEWSFINSNLKFAEAPSCLIIQMPRFGKDFKLFKKIFPSLELNITDLLEDTPRQCRICGGLAMYECRECYDDPDISAGKIKQFCKTCNTQVHLHPKRLNHKYNPVSLPKDLPDWDWRHGCIPCQNMELFAVLCIETSHYVAFVKYGKDDSAWLFFDSMADRDGGQNGFNIPQVTPCPEVGEYLKMSLEDLHSLDSRRIQGCARRLLCDAYMCMYQSPTMSLYK | soluble
YLLGAFKPACNISITFSDGKNRKQVPMKKENGQTALVPLFHSQDTISGKVCIEPYQGKKVEHNGVKVELLGQIANYSYDSFLLLTTVRELDVPGEIYERKTYPFEFPTVEMPYETYNGVNVRLRYVLKVTVTRGYAGSILEYQELVRNYAPLPDINNSIKMEVGIEDCLHIEFEYNKSKYHLKDVILGKIYFLLVRIKMKNMDLEIRRRESTGAGANTHVETETLAKFELMDGTPVRGESIPVRLFLAPYDLTPTHRNINNKFSVKYYLNLVLVDEEDRRYFKQQEITLYRLKEDASS | soluble
YNPLNSVEDSTNRRDTVLQNMVAAGYIDKNQETKAAEVDMTSQLHDKYEGKISDYRYPSYFDAVVNEAVSKYNLTEEEIVNNGY | not soluble
YQNYGIMAAIDHINALKDLVKRFPKFADLPKIYGGGSYGGYLSLLIAKIAPWYVDGVIDNSGVCLPFLACILGREMNQGEFYFEGSGYRLYCFVYKYWNRNMNSSYYFGDENYLIRAVLNSNHLQIQSNLNKNTIFVSYHSIQDMGAPVQNKIELYKCYQELGYDATLHLIKDEN | not soluble
YQWLPNIGSGEAGADWGLRLTSRDMGKFGLMWLNKGQYNGTKIVGEEWLNELRKSKFYSYEMGYGLHFWQVSNVENGVAAVGIGEQYIVAIPNKNAVIVTTAGNYETRSRPVLTLIQQLSSLL | not soluble
